In a protein production outcome set (Wang et al. 2014) one finds protein production data, which are given here for 18 sequences.

This data set is described as follows: label from the status in PepcDB records.
As for “MSKLSIRNLTKIFGPHPEKALGLLEQGLGKEEIHRRTSHAVGVDRASFDVEEGEIVVVMGLSGSGKSTLVRCLNRLIEPTAGTVTVDGRDVTSMPVDELRRLRQRSFGMVFQNFALFPHRTVLQNAAFGLEAMGVPRAERERQAMVSLERVGLAEWAASRPAQLSGGMQQRVGLARALSLDPDILLMDEAFSALDPLIRRDMQDELLRLQDDLQKTIVFISHDLDEALKLGDRIVLMRDGAVVQIGTPEDILTNPADDYVARFVGEADVTKVLTAGSVMKRSEAVAVLGIDGPRTALRKMRRNAIATLFVLDERHRLVGLITADDAARLAAEGVRELGSIVRRDIATVPPEAPATELISLMADLPHPLAVVDERGRLAGVIVRGLLLGALAERGGVALEHHHHHH”, the protein production entry is on record as “not failed”.
On to “MSRVSLRLWDPLVRLFHVSIAGVFVANYFFNEAGDDWHIWLGYYAVAWLAVRVVWGFLGPTSARWSDFWPSPARLRAHVRSLIDRKPVHRLGHSPLGALVMVLMMALIFGMGLTGFLMEEVDALWGADWPLQTHEILANTLCALVVLHMAAAIFESFQVRDNLPLSMLTGKRRPLPEDDYR”, for which the protein production entry is “failed”.
Turning to “MSDHPGSNAANPPPVPGAPALRTRRFNVSLVWLVPIVAALVGLSMVVHNSLSAGPEISISFQTAEGLEANKTQVKYKNVVIGKVTSIALSDDRKKVVAKVELDQSAEPFTADDSLFWVVRPRIGANGISGVDTLLSGAFIGADAGKSEKRKDSFKGLETPPPITYGQKGKRFTLHTDDLGSLDIGSPVYYRRIEVGQVVSYQLANSGKGVDVKIFVNSPNDKYVTTDTRFWNASGVDVTLGANGLKVNTESVSSILAGGIAFVEPKYSPNAKPADENAEYTLFGDQDTALAPPDGAPYYIRMRFDQALRGLSVNAPVEFLGVNIGKVVSMDLDYDEQRKYFPTLVGAVIYPERLGKAHEKLVKQTGGEDDVRSAKLIGAFVKNGLRAQPRSGNLLTGQLYISLDFVTNAKPVAYDATARPLEIPTVPGSMDKLQEQLQAVVDKISKLPIDSIAANLNGSLAEMQKTLKQVNGEVLPQMRDTLEQSKKTLASANESFSEDSPQRQKLGQAMEEVQRTARSVRVLSDFLGRHPEALIRGRLKDNQPDAYQSPSSSVRESVPEAQP”, the protein production entry is on record as “failed”.
Turning to “MKKKKIWALIWRKSAFRWLLISIFTAIIISACSYNVSKDENGKVKTVKSHFTPCYVVKHKMGETCVPQNPQRIVVLAQTTLANVLALGVKPIGILGADLPTYLQQARDIQVVGEGWEPDVEKILLLKPDLILGKEYHRTQYNTLSQIAPTVLLEWNGTPSWKQHLEDVAQVLNKTDQAKSLMRNYHQRLEEFKIKMGDRLKNLQISYIDILVGYIWCDVKNSFAGTILADAGLQHPSAQEVVTKGGYITFGLETMPMDADGDVIFTSHWMDEDGAKALKRNQNNPLWRKLKAVEQNQVYVVNRHFWRGSNILAAHKVIDDLFNYLVDAKS”, the protein production entry is reported as “failed”.
Under “MLVRNICKFTQVMGRFRVVVNPRDYCHLAPLKRSRYHQRSEFGCRPLCSNAAGYEVSWAAPPASGSSGGMFWAFSAAFTLNLFGGADEKEETPEEKLIKTIKRSILCIQREQYDKAEQMLHLALRMAQDIQSKDGITYVFDLMANLAMEREQFKKAEKIFTDVMKRLFAEGHTEESPKILHISSKIAHMSQLQGDLEKSFQGFTWTLQQLAKLLEKMPDDKDILELYGLTKNWFGQLLMKQGKYLEAKNLFKEAFDTLINVYGAVNDASVTILNNISVAYVNLEKYAEARETLLEAMELTKELKDATQEGILQANLGLVYLREGLMSQAENACRLAWKLGKQHQNPDAVEQAEYCLNEIKTTLNGEKRQ” stands “failed”; under “MERIVMPANYVHTRTTPFWTKETAPASIWRRHLDAGTRQGVYPRLCVMQGTIRYYGYADETSPEPVETLTIEAGQFGVFPPEKWHRIEALSDDTLFNVDFYVDPKILIEGLEHHHHHH”, “failed”; under “MKTKLMTLQDATGFFRDGMTIMVGGFMGIGTPSRLVEALLESGVRDLTLIANDTAFVDTGIGPLIVNGRVRKVIASHIGTNPETGRRMISGEMDVVLVPQGTLIEQIRCGGAGLGGFLTPTGVGTVVEEGKQTLTLDGKTWLLERPLRADLALIRAHRCDTLGNLTYQLSARNFNPLIALAADITLVEPDELVETGELQPDHIVTPGAVIDHIIVSQESK”, “not failed”.
Consider “MRIGVIGTGTIATAVVHGIAGDGHAITVSERSAANAQALAAAYPNVRVASNQVVVEECDILTLGLMAEQAPEILGPLPFRADQQVITLMAGATLEQVAQMVAPARAAAIMMPFPSIAQGGSPIMMQGDADLVAALFGARNRIFAVRDAAEMAAYLCAQAVLSPVARMVDDAAGWLATRVSDPVQGEAFLRALVASSLADTDSASLIEALNTPGGYNQRLRLHMEGAGMGDSLRAGLDALETGA”, for which the protein production result is “failed”.
With “MDFGLATTLYPDEYNYQTDAYSPTSSPVDLVQVIQQLHASLDPRTVFACYGKVLGQHLPIQGVRLQSEQHKLSWGKRYGISLKRQIICGGTPLTLQYQLLTPLTPSQSICLQEIEPLLLQPLLNAMQYQEMSMQAMFDALTGLGNRHYYSQSLKNAVARAQRKQGSVSLIVLDLDNFKKLNDKYGHKCGDYILKEFGDIIRSSIRSTDQAFRIGGDEFVVIVQGNIHAAGLLCERIVSATNTHASFHQFGVSCSLGAAEASETMEAEQLYEQADKTLYQAKASGRNCYKLSPTQLS”, the protein production result is on record as “failed”.
In the case of “MTEVALSPRGRSVAYTVRRLSPGQAPAPRARLYVARTSGRDDPRLLFQDEHDIRAPAWHPDGTHLAFVRPVNGTPQVFVIPLNGGVPYRLTDTPHGAQAPQWGPDGERLLFASHVPEPAVRRQTARRPPTERPGRTASDTIRTPPPDTLLVLRHDRTLRPVDTLAVDADGRPQTPTDTTDTLHVPRHSSLSDTLTAPPVRRLAGLSPDSLQAVFDRFRLRSDTTTVAVRPDTAAAPNGTLAQVRRWMHQNRRSGTALVSSRLEIQGERQLRPTPTYRHHYVVDLPAGIRSGRPPRPTPRLLTGGYRSYGQADWLPGGEQVVVSGMPATNESPDRVRRRNLYVADLNTPRLRRLLRIENHTLTSPSVTTDGSTVAFRVESLAPSSDAPAEIGLFALDGRSQPRILTSALDRDVTSVTWAPDGWYLYTTAPSEGGRPLFRFTPFAQDTTDGAPQAPSPTLPTDRATSRNTFTFDSTMVRPAEAEQLTSAARAIHSFDVTDATAVYASTDPTTPSALYANTVSFNNERPLATPNAEWLSRRQVAPPDRMTVSHDSLAVTGWVTRPVAFADSLRHPLFVQARGGPPALSAPYTPEAWFERQYLTGRGLGLVEGFPRGSAGFGTAFRRANDKNWGPGPARDILALADSAAALSWTDSTRVALGGTGYGGTLTAWILGRTNRFAAAVALNGVYDLPALLGGGRAWRLVPAEFGGYPWDGVPPRSLGDPVLSSRLPSPDSTAQTPWTALHRNSPLTYAHRIRTPLLLMQGGADRRVGPSQGERLYKRLKILDRPVEYVRYPEVGHDMSASASPRQRLDRLVRTYEFLARFLEPPAPPTAPQSPPRP”, the protein production result is listed as “failed”.
In the case of “MTRAINDPGNEDPGSLLETDADALLGGAAAQAPEERCRLAAQACIRACERYLALCTESSREQRQHAGDCADLCRLAALLLERRSPWAPAACELAARYALACAERCDGDEPLERECAGACRRFVEACRPLLPALEHHHHHH”, the protein production result was “not failed”.
As to “MGSGPTGLRGTGRQLLALERDVLVLSVAMFAFSLGFQMTSRYIPRYMSVLGAGAVAIGLFGAFGNLISALYPYPGGAVSDRIGSRTALTLFGLLSTAGFLIWLFADAFGTVVVPPVGTEREVFGREVVIGWLEPAVVPVGIFLGLVFAQAWKSFGLGATFAIVKQSVSPDQLATGFASTETFRRTAFLLGPLLAAGILAVFTFEVGFRIVLAVAAAFGLVATLAQHFLYDASEDTLGKSFAGVSAVVDDLRSMPSELRPLLVADTLVRFGNGMVYVFFIIVVTEFLEVGVSLPVVGRLSPDAYFGVLLAIEMLVALLIMLPVSRLSRRVGLKPVVAVGFAVYAIFPAVLIYAPDNAAVLALLFAVSGLRFAGLPAHKALIVGPAESGSGGRVTGSYYLVRNVVVIPSAAIGGAIYAVSPETAFLTATAIGLAGLVVFLAFGREFEAAVAG”, the protein production result is reported as “failed”.
Under “MSKKGFFEYKLSKEIVRALTGLGYDHPTEVQGEVIPVALQKKDLVVKSQTGSGKTASFGIPLCEMVEWEENKPQALVLTPTRELAVQVKEDITNIGRFKRIKAAAIYGKSPFARQKLELKQKTHIVVGTPGRVLDHIEKGTLSLERLKYLVIDEADEMLNMGFIDQVEAIIDELPTNRMTMLFSATLPEDVERLSRTYMNAPTHIEIKAAGITTDKIEHTLFEAIEDEKFSLLKDVTTIENPDSCIIFCRTQENVDHVYRQLKRANYPCDKIHGGMVQEDRFEVMDDFRKGKFRYLVATDVAARGIDIDNITHVINYDIPLEKESYVHRTGRTGRAGNSGKAITFITPYENRFLEEIEEYIGFEIPKAIGPSKEEVMKGKAAFEEKIHAKPIIKKDKNADINKGIMKLYFNGGKKKKIRAVDFVGTIAKIKGVTAEDIGIITIQDNVSYVEILNGKGPLVLKVMKTTTIKGKQLKVHEAIK” stands “failed”; under “MKSITTDELKNKLLESKPVQIVDVRTDEETAMGYIPNAKLIPMDTIPDNLNSFNKNEIYYIVCAGGVRSAKVVEYLEANGIDAVNVEGGMHAWGDEGLEIKSI”, “failed”.
In the case of “MNSKFKGIIFMILASAAFATMNLLSKLAVGVNSYQKTFLTNVVATLIVCFIIAYKKGSFFGKKESRKYLLVRGVTGTLSILTNYYALDKMFLSDATILTKLAPFFTIIFSYLLISEKITKKQFTLLIVAFAGSLFVIKPQFSTAIIPSLIGVASAAFAGIAYTMIRVIGDKEDFWTIILSFTSIATIVMLPSMFMNTDNLTLQNILLLVSAGIAFTLGQVALTIAYKNAPASEISMYDYIGLIIAAIYGFMFFKEIPDFLSFTGYIIIVGSSLLNILGNKKTSNKEINEDSSLVSTD”, the protein production result was “failed”.
Take “NANLDPKTRVLEHRLLAASSAIAEKLGVSAGDEVLLIRRLRSTGDIPVAILENYLPPAFNDVSLDELEKGGLYDALRSRGVVLKIANQKIGARRAVGEESTLLDIEDGGPLLTVERVALDNSGQVIELGSHCYRPDMYN”: the protein production result was “failed”.
Under “MKTKIIGVLGLGIFGQTLAQELSNFEQDVIAIDSNPENVQAVAEVVTKAAIGDITDLAFLKHIGISDCDTVIIATGNSLESSVLAVMHCKKLGVPQVIAKARNLVYEEVLYEIGADLVISPERESGQNVAANLMRNKITDVFQIESDISVIEFKIPKSWVGKTVEQLNIRHKFDLNLIGIRKAKNKPVDTEVPINSPLEEGIILVAIANSDAFQRYDYLGYFNLEHHHHHH” stands “not failed”; under “MSQNLQETSQAYPRHRPGSHAGPKSLKVTPRATMYTFLPDNFSPAKPKPTKELRPLLCSAVLGLLLVLAAVVAWCYYSASLRKAERLRAELLDLNRGGFSIRNQKGEQVFRLAFRSGALDLDSCSRDGALLGCSRAADGRPLHFFIQTVRPKDTVMCYRVRWEEAVPGRAVEHAMFLGDAAAHWYGGAEMRTQHWPIRLDGQQEPQPFVTSDVYSSDAAFGGILERYWLSSRAAAIKVNDSVPFHLGWNSTERSMRLQARYHDTSYKPPAGRTAAPELSYRVCVGSDVTSIHKYMVRRYFNKPSRVPASEAFRDPIWSTWALHGRAVDQNKVLQFAQQIRQHRFNSSHLEIDDMYTPAYGDFNFDEGKFPNASDMFRRLRDAGFRVTLWVHPFVNYNSSSFGEGVERELFVREPTGRLPALVRWWNGIGAVLDFTHPEAREWFQGHLRRLRLRYNVTSFKFDAGEVSYLPRDFSTYRPLSDPSVWSRRYTEMAEPFFSLAEVRVGYQSQNISCFFRLVDRDSVWGYDLGLRSLIPAVLTVSMLGYPFILPDMIGGNAVPERTAGRQDGPGPERELYVRWLEVAAFMPAMQFSIPPWQYDAEVVAIAHKFAALRASLVAPLLLELAGEITDTGDPIVRPLWWIAPGDETAHRIDSQFLIGDTLLVAPVLEPGKQERDVYLPAGKWRSYKGELFDKTPVLLTDYPVDLDEVAYFTWAS”, “failed”.
